Experimental data as given in the supplement of paper PMC12764529.
± gives the half width of the 95% confidence interval.

Legend:
[1] = folding stability dG unfold from trypsin proteolysis; higher = more stable
Summary of the method: (§1)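 Digests were run with trypsin and chymotrypsin at 11 concentrations in threefold dilutions, plus a no-protease condition, on designed mini-proteins in a PA-tagged cDNA display construct. The mini-proteins were under 80 residues, had no cysteine, and were kept only when AlphaFold2 dimer inter-PAE was above 15. After sequencing, Bayesian fitting of the counts gave K50, from which unfolding free energy was derived against a sequence-predicted unfolded-state K50 and a shared folded-state K50, per protease or combined.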

[2] = folding stability dG unfold (combined trypsin and chymotrypsin); higher = more stable
Summary of the method: as §1

[3] = folding stability dG unfold from chymotrypsin proteolysis; higher = more stable
Summary of the method: as §1

Row | Sequence | folding stability dG unfold [1] | folding stability dG unfold [2] | folding stability dG unfold [3]
1 | SAGGDVTIEWFPMSEEEMKKMMEEMPPNTIMIPFPGNGYFIPVRVPDDPEEADKIAEEIRKWLEQLPSAGGS [r16_311_TrROS] | 1.81 ± 0.057 kcal/mol | 1.62 ± 0.063 kcal/mol | 1.44 ± 0.024 kcal/mol
2 | SAGGDVVRVRVRLRRFEIVGDRPVYRPVDIDILAEADGDPEAARRRAEREARRLAEEYGAEIEDIELFPSAG [r5_497_TrMRF] | 2.15 ± 0.026 kcal/mol | 2.4 ± 0.083 kcal/mol | 2.57 ± 0.04 kcal/mol
3 | SAGGEEELKKNPDLIVIKITIRNKETGEEIEELEIVLSKEELEELLETLRKLLPPGWEIVKVEIRKLPSAGG [r13_849_TrROS_Hall] | 4.11 ± 0.24 kcal/mol | 4 ± 0.3 kcal/mol | 3.02 ± 0.14 kcal/mol
4 | SAGGEEIEAEVVEVRTFTLENGFEVTTTLIRVDGKLILITSVKKTKNGKWEVVEVKELPLEELSPEELSAGG [r13_494_TrROS_Hall] | 3.35 ± 0.14 kcal/mol | 2.93 ± 0.14 kcal/mol | 2.73 ± 0.035 kcal/mol
5 | SAGGEELARRLAEELRELGLEVEVVDVDLEEGKITIRVRPAPPPPPVTERRTRRRPDGREVTEERVLSAGGS [r8_318_TrROS_Hall] | 0.282 ± 0.21 kcal/mol | 0.214 ± 0.16 kcal/mol | 0.0369 ± 0.15 kcal/mol
6 | SAGGEELMKDHPNFIFITIEIRHPGGGKEKPKFMIMIPNNTPEELIDELRDFLPPGYKIKDVEIHYMDSAGG [r13_849_TrROS] | 2.41 ± 0.13 kcal/mol | 2.14 ± 0.17 kcal/mol | 1.72 ± 0.096 kcal/mol
7 | SAGGEEVILTLPDGSPVRVIPDEGTASFELPGYRVETEVLPDGRIRLTVRDPAAGALVRELDLGLLRSAGGS [r16_760_JUSTAS] | 0.158 ± 0.039 kcal/mol | 0.623 ± 0.039 kcal/mol | 0.789 ± 0.068 kcal/mol
8 | SAGGEEVKTIKVTLAFYNPETGELVAEVEATATLVDGKLVLTTTVTFRPAPAGEPVTVTVTVVEPEESAGGS [r16_327_TrROS_Hall] | 2.93 ± 0.39 kcal/mol | 3.39 ± 0.24 kcal/mol | 3.63 ± 0.13 kcal/mol
9 | SAGGEEVTIKLSDELRDLVPDAEIRVERLEDGTLRIEIRVRLPAPEPPEPVERREERRVEVRVEVRLESAGG [r13_129_TrROS_Hall] | 1.98 ± 0.16 kcal/mol | 2.14 ± 0.13 kcal/mol | 2.22 ± 0.22 kcal/mol
10 | SAGGEGEILDKKEFTFPDNVKLEVYVFKVGDKYFVKVKTTITVPENPTKPKKPLKKITPEDIKKALEKSAGG [r13_760_TrMRF] | 0.151 ± 0.33 kcal/mol | 1.5 ± 0.5 kcal/mol | 1.88 ± 0.21 kcal/mol
11 | SAGGEGKEDKKIKVLFINVPVDKPDLLLKLAKEIIEKKEYDIIIVDHPENYKALKEAFPEYDIPIILGSAGG [r13_353_TrMRF] | 2.04 ± 0.064 kcal/mol | 3.29 ± 0.069 kcal/mol | 3.673 ± 0.022 kcal/mol
12 | SAGGEIERDPNGWIRMTYTLPGFGYKIEITFRVPDNGMMQIEDIDIEPIPPVPPPPPPKYDPNGEWKYSAGG [r13_646_TrROS] | 1.64 ± 0.08 kcal/mol | 2.02 ± 0.17 kcal/mol | 2.25 ± 0.041 kcal/mol
13 | SAGGEIKIKKSKDGKTLYIEIKIKAGEKVKLKLTITLPNGKKAEITSVEIIEKNGELYIKVEIKIKDSAGGS [r16_499_TrROS_Hall] | 3.92 ± 0.28 kcal/mol | 4.42 ± 0.42 kcal/mol | 4.67 ± 0.4 kcal/mol
14 | SAGGEKATVTVVYDPEKGYVVVPVDIPFLDENGKPKKLKLVFVLPASPEAEEAVKELAKELGLESVESAGGS [r8_381_TrMRF] | 1.37 ± 0.1 kcal/mol | 2.11 ± 0.2 kcal/mol | 2.38 ± 0.059 kcal/mol
15 | SAGGEKIKEALEKVPGLEIVKVEKKDGKVYIHIKAKSEEQRKKAAEALKKLPGIKEVKIEVIPEEELSAGGS [r16_671_TrROS_Hall] | 3.28 ± 0.15 kcal/mol | 3.03 ± 0.21 kcal/mol | 2.88 ± 0.064 kcal/mol
16 | SAGGEKIKLKVVIKVPKELKNLSKEEIEELLKKKLGPNYKITKVEIKVEKNENGEEYLVVEVEIEKESAGGS [r16_408_TrROS_Hall] | 3.64 ± 0.21 kcal/mol | 3.58 ± 0.23 kcal/mol | 3.37 ± 0.13 kcal/mol
17 | SAGGEKITAEELVEEIQKIFNENGMKPVAIEPMPDGGVFIHFKNPYMIMIDAEEGKIEIMPPEDMEDFSAGG [r13_717_TrROS] | 1.04 ± 0.068 kcal/mol | 1.09 ± 0.27 kcal/mol | 1.49 ± 0.13 kcal/mol
18 | SAGGEKITIEVDGKKVTITKNEDGTITITIEHNGKVIKTITLPKNLEKITELTLTFNGKTYTITIEPSAGGS [r16_452_TrROS_Hall] | 3.9 ± 0.13 kcal/mol | 4.97 ± 0.11 kcal/mol | 5.013 ± 0.048 kcal/mol
19 | SAGGEKRYLVRVRAYYRFEEGERELDLEVEVTSPEEAKELLEKIATRLRKLYPDRIRIEVEIRPLEESAGGS [r16_475_TrMRF] | 4.53 ± 0.17 kcal/mol | 4.94 ± 0.14 kcal/mol | 5.1 ± 0.12 kcal/mol
20 | SAGGEKTLTVEYNPEDDYLTFTLTLTRPGYDPVTGKPREYKVTLTFTVPLNEATPEHVKLALEIYEKDSAGG [r13_980_TrMRF] | 2.88 ± 0.13 kcal/mol | 4.28 ± 0.56 kcal/mol | 4.71 ± 0.15 kcal/mol
